Experimental findings from PMC7105484, “Crystal structures of REF6 and its complex with DNA reveal diverse recognition mechanisms” (Cell Discovery, 2020) are described below.

Positions count from the first letter of the chain named. In names and notes the source's numbering stands.

Data set [1] deals with T1, REF6 ZnF1-4 WT (Arabidopsis thaliana, UniProt Q9STM3 1223-1360).
T1 sequence: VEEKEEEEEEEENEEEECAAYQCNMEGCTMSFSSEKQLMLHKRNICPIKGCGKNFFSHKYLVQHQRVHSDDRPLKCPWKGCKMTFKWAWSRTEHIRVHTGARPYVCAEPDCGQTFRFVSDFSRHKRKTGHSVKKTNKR
Description: EMSA; MST: 20 mM HEPES pH 7.3, 150 mM NaCl, 0.2 mM TCEP, 0.5% CA-630, 25 C; EMSA: 30 uM protein, 10 uM dsDNA, 20 mM Tris pH 8.0, 100 mM NaCl, 2.5 mM MgCl2, 0.1% CA-630, 10% glycerol, 1 uM ZnSO4, 1 mM DTT, 4 C. The following applies: protein: recombinant, tags: His6-MBP or GST tag, TEV-cleavable (cleaved when necessary).

Data set [2] concerns the molecule itself. Description: SEC; analytical gel filtration, Superdex 200 10/300 GL, 5.0 mg mL^−1, no DNA; 20 mM HEPES pH 7.3, 500 mM NaCl, 2 mM β-mercaptoethanol. (In general: In gel filtration, larger molecules generally elute earlier.)
Data set [3] has as its target T1, REF6 ZnF1-4 WT. In words: MST; MST: 20 mM HEPES pH 7.3, 150 mM NaCl, 0.2 mM TCEP, 0.5% CA-630, 25 C; EMSA: 30 uM protein, 10 uM dsDNA, 20 mM Tris pH 8.0, 100 mM NaCl, 2.5 mM MgCl2, 0.1% CA-630, 10% glycerol, 1 uM ZnSO4, 1 mM DTT, 4 C. The conditions noted are these: protein: recombinant, tags: His6-MBP or GST tag, TEV-cleavable (cleaved when necessary).
For data set [4], the target named is T2, REF6 N1276F (Arabidopsis thaliana, UniProt Q9STM3 1223-1360, N1276F).
T2 sequence: T1 sequence with N54F
The description is as above. The conditions noted are these: protein: recombinant; tags: His6-MBP or GST, TEV-cleavable; label: FAM in MST.

In data set [5] the target is T1, REF6 ZnF1-4 WT. In words: MST; Hill coefficient 1.9; MST: 20 mM HEPES pH 7.3, 150 mM NaCl, 0.2 mM TCEP, 0.5% CA-630, 25 C; EMSA: 30 uM protein, 10 uM dsDNA, 20 mM Tris pH 8.0, 100 mM NaCl, 2.5 mM MgCl2, 0.1% CA-630, 10% glycerol, 1 uM ZnSO4, 1 mM DTT, 4 C. The conditions noted are these: protein: recombinant; tags: His6-MBP or GST tag, TEV-cleavable (cleaved when necessary); label: FAM in MST. (Mobility shift assays separate free from complexed probe on a gel.)

B1: CUC1-1 (dsDNA)
DNA 1: TTCCTCTGTTCTTAT
DNA 2: ATAAGAACAGAGGAA
In the case of B1, in data set [1] (label: FAM in MST), the binding result is on record as “binds”.

B2: CUC2-4 (dsDNA)
DNA 1: TCCCTCTGTGCACGC
DNA 2: GCGTGCACAGAGGGA
Take B2: the binding result in data set [1] (label: FAM in MST) is given as “binds”.

B3: REF6 fragment 1139–1360 (domain or fragment, Arabidopsis thaliana, UniProt Q9STM3 1139-1360, looked up)
chain: RSTAKRIAKTKTVQSSRDTKGRFLQEFASGKKNEELDSYMEGPSTRLRVRHQKPSRGSLETKPKKIGKKRSGNASFSRVATEKDVEEKEEEEEEEENEEEECAAYQCNMEGCTMSFSSEKQLMLHKRNICPIKGCGKNFFSHKYLVQHQRVHSDDRPLKCPWKGCKMTFKWAWSRTEHIRVHTGARPYVCAEPDCGQTFRFVSDFSRHKRKTGHSVKKTNKR
notes: source: E. coli BL21 (DE3), purified
Turning to B3, the “stoichiometry N” value in data set [2] was 2.

B4: CUC2-1 (dsDNA)
DNA 1: TTGCTCTGTTAGTTC
DNA 2: GAACTAACAGAGCAA
On to B4, for which, in data set [1], the binding result is recorded as “binds”.

B5: REF6 fragment 1175–1360 (domain or fragment, Arabidopsis thaliana, UniProt Q9STM3 1175-1360, looked up)
chain: DSYMEGPSTRLRVRHQKPSRGSLETKPKKIGKKRSGNASFSRVATEKDVEEKEEEEEEEENEEEECAAYQCNMEGCTMSFSSEKQLMLHKRNICPIKGCGKNFFSHKYLVQHQRVHSDDRPLKCPWKGCKMTFKWAWSRTEHIRVHTGARPYVCAEPDCGQTFRFVSDFSRHKRKTGHSVKKTNKR
notes: as for B3
With B5, the “stoichiometry N” value in data set [2] stood at 2.

B6: CUC2-2 (dsDNA)
DNA 1: TCTCTCTGTCTTTTC
DNA 2: GAAAAGACAGAGAGA
B6: the binding result in data set [1] is recorded as “binds”.

B7: m5-m9'C (dsDNA)
DNA 1: CTTTCTCTGTTTTGTC
DNA 2: GGACAAAACAGAGAAA
modifications: methylcytosine at position 9 of strand 2 (9'C)
As to B7, the Kd in data set [3] (label: FAM in MST, 5' overhang 1 nt on both strands (as m5)) came to 5.9 µM.

B8: CUC1-3+4 (dsDNA)
DNA 1: TCTAAAACAGAGTCCTCCTTACTCTGTTTGTAA
DNA 2: TTACAAACAGAGTAAGGAGGACTCTGTTTTAGA
Regarding B8, the binding signal in data set [4] was 2.5 fold lower affinity than WT; in data set [5], 5 fold higher affinity than CUC1-3 (13-fold than CUC1-4).

B9: CUC1-4 (dsDNA)
DNA 1: TTACTCTGTTTGTAA
DNA 2: TTACAAACAGAGTAA
For B9, the dissociation constant Kd in data set [3] (label: FAM in MST) was determined as 2.6 µM.

B10: CUC1-2 (dsDNA)
DNA 1: AGACTCTGTTTCAGA
DNA 2: TCTGAAACAGAGTCT
Turning to B10, the binding result in data set [1] is listed as “binds”.

B11: CUC2-3 (dsDNA)
DNA 1: TAGCTCTGATAAAAT
DNA 2: ATTTTATCAGAGCTA
Turning to B11, the binding result in data set [1] is “binds”.

B12: REF6 (residues 1223–1360) (domain or fragment, Arabidopsis thaliana, UniProt Q9STM3 1223-1360, looked up)
chain: T1 sequence
notes: The fusion tag was cleaved with TEV protease 'when necessary'
In the case of B12, in data set [2], the “stoichiometry N” value was 2.

B13: m12 (G9A) (dsDNA)
DNA 1: CTTTCTCTATTTTGTC
DNA 2: GGACAAAATAGAGAAA
B13: in data set [3] (label: FAM, 5' overhang 1 nt on both strands (as m5)), the dissociation constant (Kd) worked out at 4.5 µM.

B14: CUC1-3 (dsDNA)
DNA 1: GGACTCTGTTTTAGA
DNA 2: TCTAAAACAGAGTCC
For the molecule B14, the Kd in data set [3] (label: FAM in MST) came to 1 µM.

B15: CUC1-5 (dsDNA)
DNA 1: TTTCTCTGCTCAAAT
DNA 2: ATTTGAGCAGAGAAA
As to B15, the binding result in data set [1] (label: FAM in MST) is “binds”.

B16: CUC1-6 (dsDNA)
DNA 1: TTGCTCTGTTCGTTC
DNA 2: GAACGAACAGAGCAA
On to B16, for which, in data set [1], the binding result is “binds”.

By stoichiometry N is commonly meant a count of units in the complex or per binding partner. Usually Kd stands for the concentration at which binding is half-saturated.
